Measured values from PMC6877644.

What was measured:
[1] = molecular target: T1, JASPer (Drosophila melanogaster) (UniProt Q9VAA9); assay: nucleosome library pull-down with sequencing; set-up: dose or concentration left out as unconfirmed; settings: H3K36me3; scale: fold enrichment over unmodified nucleosome
T1 sequence: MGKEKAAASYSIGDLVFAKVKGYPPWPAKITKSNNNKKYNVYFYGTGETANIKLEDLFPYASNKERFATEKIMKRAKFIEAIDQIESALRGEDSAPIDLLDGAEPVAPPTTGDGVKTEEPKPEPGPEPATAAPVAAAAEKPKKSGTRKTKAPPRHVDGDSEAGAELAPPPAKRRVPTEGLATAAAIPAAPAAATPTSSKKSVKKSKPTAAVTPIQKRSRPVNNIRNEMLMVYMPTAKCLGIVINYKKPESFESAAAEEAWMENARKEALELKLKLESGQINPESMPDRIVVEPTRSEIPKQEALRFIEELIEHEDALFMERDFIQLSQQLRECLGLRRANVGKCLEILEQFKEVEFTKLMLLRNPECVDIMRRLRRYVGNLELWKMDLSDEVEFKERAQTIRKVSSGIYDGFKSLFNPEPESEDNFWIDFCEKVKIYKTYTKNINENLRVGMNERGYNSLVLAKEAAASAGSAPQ

[2] = molecular target: JASPer (untagged, in JJ-complex);JIL-1 (Drosophila melanogaster;Drosophila melanogaster) (UniProt Q9V3I5); assay: nucleosome library pull-down with sequencing; settings: H3K36me3; DNA EMSA: 50 mM HEPES pH 7.6, 50 mM NaCl, 10% glycerol, 2 mM MgCl2, 10% BSA, RT 10 min; RNA EMSA: 25 mM HEPES pH 7.6, 100 mM KCl, 3 mM MgCl2, 1 mM DTT, 5% …; scale: fold enrichment over unmodified nucleosome
Chain of JASPer (untagged, in JJ-complex);JIL-1 (Drosophila melanogaster;Drosophila melanogaster) (Q9V3I5 whole entry, looked up, one chain of several): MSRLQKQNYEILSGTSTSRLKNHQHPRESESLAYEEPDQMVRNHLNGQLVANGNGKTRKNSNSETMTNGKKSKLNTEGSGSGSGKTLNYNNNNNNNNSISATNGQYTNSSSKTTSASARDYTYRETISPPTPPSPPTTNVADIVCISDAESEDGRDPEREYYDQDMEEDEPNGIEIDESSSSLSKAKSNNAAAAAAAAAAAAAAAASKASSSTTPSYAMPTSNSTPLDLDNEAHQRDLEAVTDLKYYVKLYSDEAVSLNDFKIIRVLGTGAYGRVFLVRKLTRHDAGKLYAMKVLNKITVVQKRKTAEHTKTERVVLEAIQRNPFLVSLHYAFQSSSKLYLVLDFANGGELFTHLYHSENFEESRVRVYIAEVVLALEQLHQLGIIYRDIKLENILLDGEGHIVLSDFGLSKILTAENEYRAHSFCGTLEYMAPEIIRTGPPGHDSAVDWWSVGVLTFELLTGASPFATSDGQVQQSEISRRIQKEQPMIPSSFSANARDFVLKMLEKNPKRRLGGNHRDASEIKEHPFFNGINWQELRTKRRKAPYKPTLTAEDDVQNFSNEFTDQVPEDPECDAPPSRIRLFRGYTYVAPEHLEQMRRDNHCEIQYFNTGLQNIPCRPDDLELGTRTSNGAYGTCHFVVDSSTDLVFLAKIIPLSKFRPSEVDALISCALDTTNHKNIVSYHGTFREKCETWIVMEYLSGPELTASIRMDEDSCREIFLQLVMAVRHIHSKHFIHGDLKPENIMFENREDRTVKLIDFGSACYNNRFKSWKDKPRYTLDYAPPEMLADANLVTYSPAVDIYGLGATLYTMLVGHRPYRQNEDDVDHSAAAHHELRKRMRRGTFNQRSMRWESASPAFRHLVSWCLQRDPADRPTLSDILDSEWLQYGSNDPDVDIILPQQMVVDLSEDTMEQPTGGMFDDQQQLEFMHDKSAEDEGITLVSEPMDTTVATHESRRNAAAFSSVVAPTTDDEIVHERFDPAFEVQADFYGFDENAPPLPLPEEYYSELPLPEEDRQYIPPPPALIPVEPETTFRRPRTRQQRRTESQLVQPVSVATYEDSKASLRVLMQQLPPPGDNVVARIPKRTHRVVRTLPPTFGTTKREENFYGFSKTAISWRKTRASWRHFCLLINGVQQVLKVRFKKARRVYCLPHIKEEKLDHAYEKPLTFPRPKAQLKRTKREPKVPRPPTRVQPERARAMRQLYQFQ

[3] = molecular target: JASPer-FLAG (D. melanogaster); assay: pull-down; 1.5 pmol FLAG-tagged JASPer or JJ-complex pre-coupled to FLAG-M2 beads, incubated with 1.38 pmol library of 115 DNA-barcoded nucleosome types (12 fmol each) in 200 µL 20 mM Tris/Cl pH 7.5, 50 mM NaCl, 5 mM EDTA, 0.1% TWEEN 20, 4 h at 4 °C; read out by sequencing of the barcodes, relative to the unmodified nucleosome set to 1
[4] = molecular target: JASPer-JIL-1 (JJ)-complex (FLAG-JIL-1 and untagged JASPer) (D. melanogaster) (UniProt Q9V3I5); assay: as above
Chain of JASPer-JIL-1 (JJ)-complex (FLAG-JIL-1 and untagged JASPer) (D. melanogaster) (Q9V3I5 whole entry, one chain of several): as the sequence (Q9V3I5 whole entry, looked up, one chain of several) above

| fold enrichment relative to the unmodified nucleosome [3] | fold enrichment over the unmodified nucleosome [4] | Substance | binding signal [1] | binding signal [2] |
| --- | --- | --- | --- | --- |
| – | – | H3K36me3 mononucleosome (barcoded library) | 40 | 70 |
| 40 fold | 70 fold | nucleosome bearing the single H3K36me3 modification (complex) | – | – |
